From publication PMC4141198, “The conserved ubiquitin-like protein Hub1 plays a critical role in splicing in human cells” (Journal of Molecular Cell Biology, 2014)

Molecular target: T1, 6xHis-tagged human Hub1 (human, UniProt Q9BZL1 1-73)
T1 construct: human Hub1 (UBL5) expressed from pET28a; also called UBL5; purified Hub1; source: E. coli BL21-CodonPlus (DE3)-RIL, purified (Ni-NTA, Superdex 75)
T1 sequence: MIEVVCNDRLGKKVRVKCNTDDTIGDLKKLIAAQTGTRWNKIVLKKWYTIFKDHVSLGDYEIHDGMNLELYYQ
Assay: crystal structure; Hub1 mixed with the HIND peptide at a molar ratio of 1:3, complex separated on Superdex 75; crystals at 20°C in 0.1 M Tris/HCl pH 9.0, 0.15 M sodium acetate, 20% PEG 4000; 2.0 Å
Conditions: both partners purified

B1: hSnu66 HIND peptide (residues 117-135) (peptide)
peptide: SLSIEETNKLRAKLGLKPL
notes: residues 117-135 of human Snu66 (SART1), the single HIND element; source: synthetic peptide
- binding result: binds
